Assay results published in paper PMC5548745, “Agonist-induced dimer dissociation as a macromolecular step in G protein-coupled receptor signaling” (Nature Communications, 2017).

Assays:
V5-FZD6-mCherry = assay: dcFRAP of V5-FZD6-mCherry/CB1-GFP (negative control); format: cell-based, human; details: HEK293
Method: For dual color FRAP experiments, cells grown in four compartment 35 mm glass bottom dishes were washed three times with BE buffer[19] (150 mM NaCl, 2.5 mM KCl, 10 mM HEPES, 12 mM glucose, 0.5 mM CaCl2, and 0.5 mM MgCl2). Then, the cells were incubated at RT for 30 min with biotin-conjugated goat polyclonal anti-V5 antibody (Bethyl) diluted 1:100 in BE buffer supplemented with 2.5% bovine serum albumin. For antibody-mediated cross-linking, avidin was added and incubated for 15 min and washed two times with BE buffer before the experiments were performed. In Fig. 4, dcFRAP experiments are presented that employ chemical surface crosslinking to visualize assembly of FZD6 with DVL or heterotrimeric G proteins according to previously published protocols. Live cell imaging experiments were carried out using a Zeiss 710 laser scanning microscope. Images were acquired using a 40×, 1.2 NA C-Apochromat objective and the 488 nm and the 561 nm laser lines were used to excite GFP and mCherry fluorophores, respectively. Photobleaching was performed by 100% laser illumination of a 1.80 × 1.80 µm area placed over the cell plasma membrane. Fluorescence was measured pre- and post-bleach using low-intensity illumination for a total time period of 100 s. Average pixel intensity was measured using the ZEN2013 software, corrected for background fluctuations and bleaching artifacts and normalized to pre-bleached intensity. The recovered mobile fraction (F m) was calculated as follows: F m = (I P–I 0)/(I I–I 0), where I I is the initial intensity measured prior to bleaching, I 0 is the immediate fluorescence intensity post-bleaching and I P is intensity value post-bleaching. The mobile fraction was defined by the average of the fluorescence recovery assessed between time 85–101 s (including pre-bleach measurements). We excluded experiments in which the extracellularly tagged receptors were not sufficiently immobilized after the crosslinking procedure (cutoff at 40% crosslinking-induced reduction in mobile fraction). […]

[1] = tested on: ERK1/2 phosphorylation in HEK293 cells; assay: P-ERK1/2 immunoblot, HEK293 cells expressing SNAP-FZD6 constructs; format: cell-based
Method: Fig. 6 Relationship between FZD6 dimerization and phosphorylation of ERK1/2. a Mouse lung epithelial (MLE-12) cells were stimulated with WNT-5A (300 ng ml^−1) for 0, 2.5, 5, 10, 20 min. Cell lysates were analyzed for P-ERK1/2 and β-actin by immunoblotting. Additional information in Supplementary Fig. 6. b Bar graph summarizes three independent experiments. Densitometry data were normalized to the unstimulated control. […] Additional information in Supplementary Fig. 6. SNAP-FZD6 wt- and SNAP-FZD6 dimer mutant-induced ERK1/2 phosphorylation in the absence e and presence f of the porcupine inhibitor C59 (5 µM, overnight) were probed by immunoblotting for the SNAP-tag, P-ERK1/2, total ERK1/2 and β-actin. g The bar graph summarizes densitometry data of P-ERK1/2 normalized to total ERK1/2 from 6 different experiments. P = 0.0005; F (2, 15) = 13.08. ***P < 0.001. Empty vector transfection was used as mock. h Increasing amounts of plasmid of either SNAP-FZD6 wt or SNAP-FZD6 dimer mutant in the presence of C59 show a dose-dependent increase in P-ERK1/2 only with the dimer mutant. Data from three independent experiments for the dimer mutant were fit to a linear least-squares model (slope = 0.40 ± 0.10; R ^2 = 0.5943) and this line is shown superimposed. […] This dissociation-dependent activation can be evoked by agonist (WNT^high) or mutation of the dimer interface (symbolized by red stars). WNT^low conditions can be achieved in the presence of C59, which reduces FZD6 wt signaling
MLE-12 or HEK293 cells (ATCC) were plated in a 24- or 48-well plate at a density of 100,000 or 50,000 cells/well, respectively. After 24 h, cells were transfected using Lipofectamine 2000 according to the manufacturer’s instructions. Cells were stimulated (24 h post-transfection) with 300 ng ml^−1 recombinant carrier-free WNT-5A (CF WNT-5A; R&D Systems). Stimulation was stopped by the addition of lysis buffer (1% NP-40, 150 mM NaCl, 50 mM Tris/HCl pH 8). Lysates were sonicated and analyzed by 7.5 or 10% Mini-PROTEAN TGX precast polyacrylamide gels (Bio-Rad) and transferred to PVDF membranes using the Trans-Blot Turbo system (Bio-Rad). After blocking with 5% milk or BSA in TBS-T, membranes were incubated with primary antibodies in blocking buffer: mouse anti-β-actin (1:30,000; Sigma #A5441), rabbit anti-FZD6 (1:1000; NovusBio #NBP1-00830), rabbit anti-Phospho-p44/42 MAPK (ERK1/2) (Thr202/Tyr204) (1:1000; Cell Signaling Technology #9101 L), rabbit anti-p44/42 MAPK (ERK1/2) (1:1000; Cell Signaling Technology #9102), rabbit anti-Phospho-C-RAF (Ser338) (1:1000; Cell Signaling Technology #56A6), rabbit anti-SNAP tag (1:1000, New England Biolabs #P9310S), and rabbit anti-HA (1:4000, abcam #ab9110) overnight at 4 °C. Proteins were detected with horseradish peroxidase-conjugated secondary antibodies (goat anti-rabbit and goat anti-mouse (Pierce)) and Clarity Western ECL Blotting Substrate (Bio-Rad). All uncropped immunoblots can be found in the Supplementary Information.

FZD6–FZD6 dimer = assay: dcFRAP of V5-FZD6-mCherry/FZD6-GFP (FZD6 dimerization); format: cell-based, human; details: HEK293, 85–101 s, mean ± s.e.m.
Method: For dual color FRAP experiments, cells grown in four compartment 35 mm glass bottom dishes were washed three times with BE buffer[19] (150 mM NaCl, 2.5 mM KCl, 10 mM HEPES, 12 mM glucose, 0.5 mM CaCl2, and 0.5 mM MgCl2). Then, the cells were incubated at RT for 30 min with biotin-conjugated goat polyclonal anti-V5 antibody (Bethyl) diluted 1:100 in BE buffer supplemented with 2.5% bovine serum albumin. For antibody-mediated cross-linking, avidin was added and incubated for 15 min and washed two times with BE buffer before the experiments were performed. In Fig. 4, dcFRAP experiments are presented that employ chemical surface crosslinking to visualize assembly of FZD6 with DVL or heterotrimeric G proteins according to previously published protocols. Live cell imaging experiments were carried out using a Zeiss 710 laser scanning microscope. Images were acquired using a 40×, 1.2 NA C-Apochromat objective and the 488 nm and the 561 nm laser lines were used to excite GFP and mCherry fluorophores, respectively. Photobleaching was performed by 100% laser illumination of a 1.80 × 1.80 µm area placed over the cell plasma membrane. Fluorescence was measured pre- and post-bleach using low-intensity illumination for a total time period of 100 s. Average pixel intensity was measured using the ZEN2013 software, corrected for background fluctuations and bleaching artifacts and normalized to pre-bleached intensity. The recovered mobile fraction (F m) was calculated as follows: F m = (I P–I 0)/(I I–I 0), where I I is the initial intensity measured prior to bleaching, I 0 is the immediate fluorescence intensity post-bleaching and I P is intensity value post-bleaching. The mobile fraction was defined by the average of the fluorescence recovery assessed between time 85–101 s (including pre-bleach measurements). We excluded experiments in which the extracellularly tagged receptors were not sufficiently immobilized after the crosslinking procedure (cutoff at 40% crosslinking-induced reduction in mobile fraction). Kinetic determination of mobile fractions of crosslinked V5-FZD6-mCherry and FZD6-GFP with WNT stimulation over time were performed in one cell culture well. Measurements for each time point were performed on separate cells.
Statistical and graphical analysis was performed using Graph Pad Prism 5 software. Data were analyzed by two-tailed t-test or one-way ANOVA with Fisher’s least significant difference post hoc analysis. Curve fitting of FRAP data was done with a two-phase association nonlinear function using the least square fit. Data for receptor titration in the presence of C59 and output to P-ERK1/2 in Fig. 6h was fit to a linear regression model. All experiments were repeated at least three times in independent experiments (not representing technical replicates). For single cell analysis (dcFRAP), the number of the individual ROIs obtained from several cells in at least three independent experiments is provided in the figure legends. Data from individual ROIs are summarized for data presentation providing the sum of independent observations. Significance levels are given as: *P < 0.05; **P < 0.01; ***P < 0.001. Data in FRAP curves and bar graphs (FRAP) are presented as mean ± s.e.m.

Molecule	CL-induced reduction in mobile fraction of CB1-GFP (V5-FZD6-mCherry; antibody-treated, co-expressing V5-FZD6-mCherry)	mobile fraction, CB1 experiment after CL (V5-FZD6-mCherry; with crosslinking, n=34)	mobile fraction, CB1 experiment before CL (V5-FZD6-mCherry; without crosslinking, n=29)	P-ERK1/2 induction in presence of C59 ([1]; HEK293, C59 5 µM overnight)	effect of overexpression on basal P-ERK1/2 without C59 ([1]; serum-starved HEK293, no C59)	mobile fraction of FZD6-GFP before CL (FZD6–FZD6 dimer; basal, without biotinylated anti-V5/avidin crosslinking, N = 21 ROIs)	mobile fraction of FZD6-GFP after CL (FZD6–FZD6 dimer; with biotinylated anti-V5/avidin crosslinking, N = 31 ROIs)
CB1-GFP: GFP-tagged cannabinoid CB1 receptor, negative control (protein, left off: GFP, end not stated, kept, GFP-tagged cannabinoid CB1 receptor, negative control) MKSILDGLADTTFRTITTDLLYVGSNDIQYEDIKGDMASKLGYFPQKFPLTSFRGSPFQEKMTAGDNSPLVPAGDTTNITEFYNKSLSSFKENEENIQCGENFMDMECFMILNPSQQLAIAVLSLTLGTFTVLENLLVLCVILHSRSLRCRPSYHFIGSLAVADLLGSVIFVYSFVDFHVFHRKDSPNVFLFKLGGVTASFTASVGSLFLTAIDRYISIHRPLAYKRIVTRPKAVVAFCLMWTIAIVIAVLPLLGWNCKKLQSVCSDIFPLIDETYLMFWIGVTSVLLLFIVYAYMYILWKAHSHAVRMIQRGTQKSIIIHTSEDGKVQVTRPDQARMDIRLAKTLVLILVVLIICWGPLLAIMVYDVFGKMNKLIKTVFAFCSMLCLLNSTVNPIIYALRSKDLRHAFRSMFPSCEGTAQPLDNSMGDSDCLHKHANNTASMHRAAESCIKSTVKIAKVTMSVSTDTSAEAL	did not exhibit a reduction in the mobile fraction of CB1-GFP upon crosslinking	77,12 ± 2,601%	78,48 ± 2,373%				
FZD6 wt: wild-type FZD6 receptor construct (SNAP-tagged in ERK assays; GFP-tagged in b181) (protein, left off: V5 (on the crosslinked copy), N-terminal, kept | mCherry (on the crosslinked copy), C-terminal, kept | GFP (on the other, mobile copy), C-terminal, kept) HSLFTCEPITVPRCMKMAYNMTFFPNLMGHYDQSIAAVEMEHFLPLANLECSPNIETFLCKAFVPTCIEQIHVVPPCRKLCEKVYSDCKKLIDTFGIRWPEELECDRLQYCDETVPVTFDPHTEFLGPQKKTEQVQRDIGFWCPRHLKTSGGQGYKFLGIDQCAPPCPNMYFKSDELEFAKSFIGTVSIFCLCATLFTFLTFLIDVRRFRYPERPIIYYSVCYSIVSLMYFIGFLLGDSTACNKADEKLELGDTVVLGSQNKACTVLFMLLYFFTMAGTVWWVILTITWFLAAGRKWSCEAIEQKAVWFHAVAWGTPGFLTVMLLAMNKVEGDNISGVCFVGLYDLDASRYFVLLPLCLCVFVGLSLLLAGIISLNHVRQVIQHDGRNQEKLKKFMIRIGVFSGLYLVPLVTLLGCYVYEQVNRITWEITWVSDHCRQYHIPCPYQAKAKARPELALFMIKYLMTLIVGISAVFWVGSKKTCTEWAGFFKRNRKRDPISESRRVLQESCEFFLKHNSKVKHKKKHYKPSSHKLKVISKSMGTSTGATANHGTSAVAITSHDYLGQETLTEIQTSPETSMREVKADGASTPRLREQDCGEPASPAASISRLSGEQVDGKGQAGSVSESARSEGRISPKSDITDTGLAQSNNLQVPSSSEPSSLKGSTSLLVHPVSGVRKEQGGGCHSDT				reduced to basal	increased basal P-ERK1/2	80,78 ± 2,053%	70,69 ± 2,416%
